Experimental data published in USRE47150 (Bayer, dated 2018).
Residue numbers refer to the chain shown, from its start. Numbers in names are those of the source.

T1: human tissue factor pathway inhibitor (TFPI) (human, UniProt P10646 29-304, limits assumed)
T1 construct: bought; also called hTFPI; human TFPI
T1 sequence (looked up): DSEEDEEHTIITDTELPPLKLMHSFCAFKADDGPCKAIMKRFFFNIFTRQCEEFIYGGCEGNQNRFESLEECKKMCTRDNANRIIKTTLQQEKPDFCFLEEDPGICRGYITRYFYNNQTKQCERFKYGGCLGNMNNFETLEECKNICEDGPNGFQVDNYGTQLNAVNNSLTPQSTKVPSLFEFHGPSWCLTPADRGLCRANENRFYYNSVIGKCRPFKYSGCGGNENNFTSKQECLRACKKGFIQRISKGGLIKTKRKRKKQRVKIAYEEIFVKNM

T2: mouse tissue factor pathway inhibitor (TFPI) (mouse, UniProt O54819 29-289, limits assumed)
T2 construct: bought; also called mTFPI; murine TFPI
T2 sequence (looked up): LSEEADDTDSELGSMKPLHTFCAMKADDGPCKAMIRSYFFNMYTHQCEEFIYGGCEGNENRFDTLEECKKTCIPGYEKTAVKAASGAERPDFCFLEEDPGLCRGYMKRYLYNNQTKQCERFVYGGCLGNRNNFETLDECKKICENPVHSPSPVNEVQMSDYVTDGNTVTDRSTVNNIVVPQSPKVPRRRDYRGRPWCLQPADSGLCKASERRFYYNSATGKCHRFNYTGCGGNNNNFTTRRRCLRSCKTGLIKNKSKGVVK

B1: 4B7 HC N32D+D62Q+H107M+Y112D/LC S32R+D33F+N35I (Fab, V domains shown)
VH: QVQLQQSGPGLVKPSQTLSLTCAISGDSVSSDSAAWSWIRQSPGRGLEWLGIIYKRSKWYNQYAVSVKSRITINPDTSKNQFSLQLNSVTPEDTAVYYCARWHSDKMWGFDDWGQGTLVTVSS
VL: DIVMTQSPLSLPVTPGEPASISCRSSQSLVFRFGITYLNWYLQKPGQSPQLLIYKGSNRASGVPDRFSGSGSGTDFTLKISRVEAEDVGVYYCQQYDSYPLTFGQGTKVEIKR
B2: 4B7 HC N32D+D62R+H107M+Y112D/LC D33F+N35T+Y37F (Fab, V domains shown)
VH: B1 VH with Q62R
VL: B1 VL with R32S, I35T, Y37F
B3: 4B7 HC N32D+D62R+H107M+Y112D/LC F31I+S32R+N35I+D97T (Fab, V domains shown)
VH: B1 VH with Q62R
VL: B1 VL with F31I, F33D, D97T
B4: 4B7 HC N32D+D62R+H107M+Y112D/LC F31M+S32R+D33R (Fab, V domains shown)
VH: B1 VH with Q62R
VL: B1 VL with F31M, F33R, I35N
B5: 4B7 HC N32D+D62R+H107M+Y112D/LC S32R+D33F+N35T (Fab, V domains shown)
VH: B1 VH with Q62R
VL: B1 VL with I35T
B6: 4B7 HC N32D+D62R+H107M+Y112D/LC F31M+S32R+D33R+N35I+D97T (Fab, V domains shown)
VH: B1 VH with Q62R
VL: B1 VL with F31M, F33R, D97T
B7: 4B7 HC N32D+D62R+H107M+Y112D/LC F31M+D33R+N35I (Fab, V domains shown)
VH: B1 VH with Q62R
VL: B1 VL with F31M, R32S, F33R
B8: 4B7 HC N32D+D62Q+Y112D/LC S32R+D33F+N35I+D97T (Fab, V domains shown)
VH: B1 VH with M107H
VL: B1 VL with D97T
B9: 4B7 HC N32D+D62Q+Y112D/LC F31M+S32R+D33F+N35I (Fab, V domains shown)
VH: B1 VH with M107H
VL: B1 VL with F31M
B10: 4B7 HC N32D+D62Q+H107M+Y112D/LC S32R+D33R (Fab, V domains shown)
VH: B1 VH
VL: B1 VL with F33R, I35N
B11: 4B7 HC N32D+D62R+H107M+Y112D/LC F31M+D33R (Fab, V domains shown)
VH: B1 VH with Q62R
VL: B1 VL with F31M, R32S, F33R, I35N
B12: 4B7 HC N32D+D62R+H107M+Y112D/LC F31M+S32R+D33R+N35T (Fab, V domains shown)
VH: B1 VH with Q62R
VL: B1 VL with F31M, F33R, I35T
B13: 4B7 HC N32D+D62Q+Y112D/LC F31I+D33F+N35I+K44R (Fab, V domains shown)
VH: B1 VH with M107H
VL: B1 VL with F31I, R32S, K44R
B14: 4B7 HC N32D+D62R+H103D+H107M+Y112D/LC S32R (Fab, V domains shown)
VH: B1 VH with Q62R, H103D
VL: B1 VL with F33D, I35N
B15: 4B7 HC N32D+D62R+H107M+Y112D/LC F31M+S32L+D33R+N35I+D97T (Fab, V domains shown)
VH: B1 VH with Q62R
VL: B1 VL with F31M, R32L, F33R, D97T
B16: 4B7 HC N32D+D62Q+Y112D/LC F31I+D33F+N35I+L42Q (Fab, V domains shown)
VH: B1 VH with M107H
VL: B1 VL with F31I, R32S, L42Q
B17: 4B7 HC N32D+D62Q+Y112D/LC F31I+D33F+N35I+D97T (Fab, V domains shown)
VH: B1 VH with M107H
VL: B1 VL with F31I, R32S, D97T
B18: 4B7 HC N32D+D62R+H107M+Y112D/LC D33R+N35I+D97T (Fab, V domains shown)
VH: B1 VH with Q62R
VL: B1 VL with R32S, F33R, D97T
B19: 4B7 HC N32D+D62R+H107M+Y112D/LC F31I+S32R+D33F+N35T (Fab, V domains shown)
VH: B1 VH with Q62R
VL: B1 VL with F31I, I35T
B20: 4B7 HC N32D+D62R+H107M+Y112D/LC D33R (Fab, V domains shown)
VH: B1 VH with Q62R
VL: B1 VL with R32S, F33R, I35N
B21: 4B7 HC N32D+D62R+H107M+Y112D/LC D33R+N35T (Fab, V domains shown)
VH: B1 VH with Q62R
VL: B1 VL with R32S, F33R, I35T
B22: 4B7 HC N32D+D62Q+Y112D/LC S32R+D33R+N35I+D97T (Fab, V domains shown)
VH: B1 VH with M107H
VL: B1 VL with F33R, D97T
B23: 4B7 HC N32D+D62Q+Y112D/LC F31I+D33F+N35I+S98H (Fab, V domains shown)
VH: B1 VH with M107H
VL: B1 VL with F31I, R32S, S98H
B24: 4B7 HC N32D+D62R+H107M+Y112D/LC F31M+S32R+D33F+N35I (Fab, V domains shown)
VH: B1 VH with Q62R
VL: B1 VL with F31M
B25: 4B7 HC N32D+D62Q+Y112D/LC S32R+D33R+N35I (Fab, V domains shown)
VH: B1 VH with M107H
VL: B1 VL with F33R
B26: 4B7 HC N32D+D62R+H103D/LC F31I+D33R (Fab, V domains shown)
VH: B1 VH with Q62R, H103D, M107H, D112Y
VL: B1 VL with F31I, R32S, F33R, I35N
B27: 4B7 HC N32D+D62Q+H107M+Y112D/LC S32R+N35T (Fab, V domains shown)
VH: B1 VH
VL: B1 VL with F33D, I35T
B28: 4B7 HC N32D+D62R+H107M+Y112D/LC F31I+S32R+D33F+N35I+D97T (Fab, V domains shown)
VH: B1 VH with Q62R
VL: B1 VL with F31I, D97T
B29: 4B7 HC N32D+D62R+H107M+Y112D/LC F31I+D33R (Fab, V domains shown)
VH: B1 VH with Q62R
VL: B1 VL with F31I, R32S, F33R, I35N
B30: 4B7 HC N32D+D62R+H103D+H107M+Y112D/LC S32R+N35T (Fab, V domains shown)
VH: B1 VH with Q62R, H103D
VL: B1 VL with F33D, I35T
B31: 4B7 HC N32D+D62R+H107M+Y112D/LC F31M+D33F+N35I (Fab, V domains shown)
VH: B1 VH with Q62R
VL: B1 VL with F31M, R32S
B32: 4B7 HC N32D+D62R+H107M+Y112D/LC F31I+D33R+N35I (Fab, V domains shown)
VH: B1 VH with Q62R
VL: B1 VL with F31I, R32S, F33R
B33: 4B7 HC N32D+D62Q+Y112D/LC F31I+D33F+N35I+T36N (Fab, V domains shown)
VH: B1 VH with M107H
VL: B1 VL with F31I, R32S, T36N
B34: 4B7 HC N32D+D62R+H107M+Y112D/LC F31I+N35I (Fab, V domains shown)
VH: B1 VH with Q62R
VL: B1 VL with F31I, R32S, F33D
B35: 4B7 HC N32D+D62R+H107M+Y112D/LC F31M+S32R+D33F+D97T (Fab, V domains shown)
VH: B1 VH with Q62R
VL: B1 VL with F31M, I35N, D97T
B36: 4B7 HC N32D+D62R+H107M+Y112D/LC F31M+D33F+N35T (Fab, V domains shown)
VH: B1 VH with Q62R
VL: B1 VL with F31M, R32S, I35T
B37: 4B7 HC N32D+D62Q+Y112D/LC V30L+F31I+D33F+N35I (Fab, V domains shown)
VH: B1 VH with M107H
VL: B1 VL with V30L, F31I, R32S

Target: T1, human tissue factor pathway inhibitor …
Test: competitive ELISA

variant/HC_D62R	Binder
24.7 ratio	B1
35.7 ratio	B2
18.2 ratio	B3
18.6 ratio	B4
29.2 ratio	B5
16.9 ratio	B6
21.3 ratio	B7
23.2 ratio	B8
20.8 ratio	B9
24.9 ratio	B10
26.9 ratio	B11
17 ratio	B12
22.8 ratio	B13
17.7 ratio	B14
32.2 ratio	B15
21.4 ratio	B16
14.4 ratio	B17
29.1 ratio	B18
29.5 ratio	B19

variant/HC_D62R	Binder
25.3 ratio	B20
28.2 ratio	B21
17.2 ratio	B22
13.5 ratio	B23
27 ratio	B24
21.4 ratio	B25
13.6 ratio	B26
25 ratio	B27
28.7 ratio	B28
30.1 ratio	B29
14 ratio	B30
28.4 ratio	B31
29.8 ratio	B32
27.3 ratio	B33
28.8 ratio	B34
21.9 ratio	B35
29.9 ratio	B36
22.9 ratio	B37

Target: T2, mouse tissue factor pathway inhibitor …
Test: competitive ELISA

variant/HC_D62R	binding result	Binder
46.6 ratio	–	B1
57.5 ratio	–	B2
8.7 ratio	–	B3
13.9 ratio	–	B4
44.1 ratio	–	B5
9.6 ratio	–	B6
23 ratio	–	B7
40 ratio	–	B8
15.8 ratio	–	B9
24.7 ratio	–	B10
24.6 ratio	–	B11
18.7 ratio	–	B12
18.5 ratio	–	B13
16 ratio	–	B14
26.7 ratio	–	B15
16.7 ratio	–	B16
4.6 ratio	–	B17
28.1 ratio	–	B18
19.7 ratio	–	B19

variant/HC_D62R	binding result	Binder
20.3 ratio	–	B20
29.3 ratio	–	B21
13.4 ratio	–	B22
–	no binding	B23
32.3 ratio	–	B24
23.5 ratio	–	B25
14.6 ratio	–	B26
27.1 ratio	–	B27
20.6 ratio	–	B28
27.9 ratio	–	B29
18.4 ratio	–	B30
46.8 ratio	–	B31
43 ratio	–	B32
46.3 ratio	–	B33
30 ratio	–	B34
16.5 ratio	–	B35
34.3 ratio	–	B36
24.6 ratio	–	B37
